The target of assay [1] is T1, synthetic peptide (epitope peptide) corresponding to the sequence from the N terminus to position 15 of CD3.
T1 construct: also called XDGNEEMGGITQTPY
T1 peptide: [pGlu]DGNEEMGGITQTPY
In words: X-ray crystal structure of the Fab with the epitope peptide. On the procedure: Furthermore, a sample was prepared by adding, to the obtained anti-CD3 antibody Fab fragment, a synthetic peptide (epitope peptide) which corresponds to the sequence from the N terminus to position 15 of CD3 and shown in SEQ ID NO: 14 below: XDGNEEMGGITQTPY (X: L-pyroglutamic acid) (SEQ ID NO: 14) to become 2 mM. The vapor diffusion method was used to obtain crystals from the sample by allowing the sample to stand at 20° C. under reservoir conditions of 100 mM MES buffer at pH7.0, 0.91% PEG3350, and 1.0 M sodium citrate tribasic dihydrate. These crystals were subject to X-ray crystallography based on the above-mentioned crystal structure of the anti-CD3 antibody Fab fragment alone according to a method known to those skilled in the art to obtain the crystal structure of a complex of the anti-CD3 antibody Fab fragment and the epitope peptide from the diffraction intensity data at 25 to 3.5 angstrom resolution. Its crystallographic reliability factor R (R factor) and Free R value (R free) were 18.55% and 26.53%, respectively.

The target of a further assay is T2, CD3εδ heterodimer (Homo sapiens (Human), UniProt P07766 22-126; P04234 22-100).
T2 construct: also called CD3ε8
Kind of assay: SPR, Biacore T200; antibody captured on Protein G (CM3 chip), CD3εδ heterodimer as analyte, single cycle kinetics, 37 C. Here is the method:
The activity of binding to the CD3εδ heterodimer was measured for: the rat anti-CD3 antibody containing as the variable region the heavy chain variable region (SEQ ID NO: 10) and the light chain variable region (SEQ ID NO: 11) described in Reference Example 1; a combination of a human anti-CD3 antibody and a rat anti-CD3 antibody which contains as the variable region a heavy chain variable region (SEQ ID NO: 12) and a light chain variable region (SEQ ID NO: 13) where the light chain has been humanized by a method known to those skilled in the art; a humanized anti-CD3 antibody which contains as the variable region a heavy chain variable region (SEQ ID NO: 12) and a light chain variable region (SEQ ID NO: 13), which have been humanized by a method known to those skilled in the art; and AN121 which contains as the variable region a heavy chain variable region (SEQ ID NO: 43) and a light chain variable region (SEQ ID NO: 13). The heavy chain variable regions were fused with F760mnP17 (SEQ ID NO: 39) used as the constant region and the light chain variable regions were fused with the Kappa chain (SEQ ID NO: 36) used as the constant region, and the antibodies were expressed according to the method of Reference Example 2.
The activity of binding to the CD3εδ heterodimer was assessed using BiacoreT200. Specifically, Protein G was immobilized onto a CM3 chip by a method known to those skilled in the art, and antibodies to be evaluated were bound to the immobilized Protein G. Then, the CD3εδ heterodimer prepared at 4000, 1000, 250, 62.5, 15.6, and 3.9 nM was bound thereto, and the binding was evaluated using the single cycle kinetics mode. Measurements were taken under conditions of 20 mM ACES, 150 mM NaCl, and pH7.4 at 37° C.

Assay [2] addresses CD3 on NFAT-RE-luc2-Jurkat cells (human, UniProt P07766 23-207). In words: cell-based or functional assay.

The values below come from patent US20220401557A1 (Chugai, published 2022).

A word on the Kd: it is the equilibrium constant for the complex coming apart. Broadly, the koff is the first-order rate constant of dissociation. As usually defined, the kon is the second-order rate constant of association.

Positions count from the first letter of the chain named. Non-standard residues stand in square brackets, D forms with d. No end group written: not given here. pGlu = O=C1CC[C@@H](C(=O)O)N1

T2 sequence (P07766 other isoform, or with tags, fused parts or gaps mutant limits assumed, chain 1 of 2): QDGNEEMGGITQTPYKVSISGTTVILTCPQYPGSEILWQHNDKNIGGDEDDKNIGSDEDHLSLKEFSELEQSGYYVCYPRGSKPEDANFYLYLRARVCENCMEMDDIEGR
T2 sequence (P04234 other isoform, or with tags, fused parts or gaps mutant limits assumed, chain 2 of 2): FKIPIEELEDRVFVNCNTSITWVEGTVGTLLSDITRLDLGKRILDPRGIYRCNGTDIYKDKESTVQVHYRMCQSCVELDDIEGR
Chain of CD3 on NFAT-RE-luc2-Jurkat cells (P07766 23-207): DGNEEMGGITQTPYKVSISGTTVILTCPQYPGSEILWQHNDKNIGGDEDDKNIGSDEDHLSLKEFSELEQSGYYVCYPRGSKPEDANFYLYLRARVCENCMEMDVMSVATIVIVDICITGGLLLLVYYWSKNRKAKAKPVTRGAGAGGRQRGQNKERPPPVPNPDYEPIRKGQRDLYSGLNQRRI

B1: Anti-CD3 antibody Fab fragment (humanized anti-CD3 antibody) (Fab, V domains shown)
VH: QVQLVESGGGVVQPGRSLRLSCAASGFTFSNAWMHWVRQAPGKGLEWVAQIKAKSNNYATYYAESVKGRFTISRDDSKNSLYLQMNSLKTEDTAVYYCRYVHYGAYYGVDAWGQGTTVTVSS
VL: DIVMTQSPLSLPVTPGEPASISCRSSQSLVHSNRNTYLHWYQQKPGQAPRLLIYKVSNRFSGVPDRFSGSGSGTDFTLKISRVEAEDVGVYYCGQGTQVPYTFGQGTKLEIKR
notes: Fab made by papain cleavage of a One-arm antibody
As to B1, the binding result in assay [1] is given as “binds”.

B2: AN121H-F760mnP17/GLS3000-k0 (AN121) (antibody, human IgG1, kappa, N297A, V domains shown)
VH: QVQLVESGGGLVQPGRSLRLSCAASGFTFSNAWMHWVRQAPGKGLEWVAQIKDKANGYNAYYAESVKGRFTISRDDSKNSIYLQMNSLKTEDTAVYYCRYVHYTTYAGFSYKFGVDAWGQGTTVTVSS
VL: B1 VL
As to B2, in the assay with CD3εδ heterodimer, the Kd came to 9.68 nM, the koff was 0.000723 s⁻¹ and the kon stood at 74700 M⁻¹ s⁻¹.

B3: CE115VH-F760mnP17/GLS3000-k0 (Combination of rat anti-CD3 antibody and human anti-CD3 antibody) (antibody, human IgG1, kappa, N297A, V domains shown)
VH: EVQLVETGGSLVQPGKSLKLTCATSGFTFSNAWMHWVRQSPEKQLEWVAQIKAKSNNYATYYAESVKGRFTISRDDSKSNIYLQMNSLKEEDTAVYYCRYVHYGAYYGVDAWGQGTSVTVSS
VL: B1 VL
As to B3, in the assay with CD3εδ heterodimer, the equilibrium dissociation constant (Kd) worked out at 262 nM, the off-rate (koff) was found to be 0.0124 s⁻¹ and the kon turned out to be 47300 M⁻¹ s⁻¹.

B4: CE115HA000-F760mnP17/GLS3000-k0 (Humanized anti-CD3 antibody) (antibody, human IgG1, kappa, N297A, V domains shown)
VH: B1 VH
VL: B1 VL
As to B4, in the assay with CD3εδ heterodimer, the Kd amounted to 556 nM, the koff was determined as 0.0288 s⁻¹ and the kon stood at 51800 M⁻¹ s⁻¹.

B5: CE115VH-F760mnP17/rCE115VL-k0 (Rat anti-CD3 antibody) (antibody, human IgG1, kappa, N297A, V domains shown)
VH: B3 VH
VL: DVVMTQTPVSMSVSLGGQVSISCRSSQSLVHNNGNTYVSWYIQKPSQSPQLLIYKVSNRFSGISDRFSGSGSGTDFTLKISRVEPDDLGVYYCGQGTQDPYTFGAGTKLELKR
For the molecule B5, in the assay with CD3εδ heterodimer, the dissociation constant (Kd) came out at 191 nM, the off-rate (koff) came to 0.00771 s⁻¹ and the association rate constant (kon) came to 40400 M⁻¹ s⁻¹.

B6: hCE115HAuPA20/GLS//GCH065 (bispecific antibody, human IgG1, kappa, N297A)
heavy 1: QDGNEEMGGITQTPYKVSISLSGRSDNHGGGSQVQLVESGGGVVQPGRSLRLSCAASGFTFSNAWMHWVRQAPGKGLEWVAQIKAKSNNYATYYAESVKGRFTISRDDSKNSLYLQMNSLKTEDTAVYYCRYVHYGAYYGVDAWGQGTTVTVSSASTKGPSVFPLAPSSKSTSGGTAALGCLVKDYFPEPVTVSWNSGALTSGVHTFPAVLQSSGLYSLSSVVTVPSSSLGTQTYICNVNHKPSNTKVDKKVEPKSCDKTHTCPPCPAPELRGGPKVFLFPPKPKDTLMISRTPEVTCVVVDVSHEDPEVKFNWYVDGVEVHNAKTKPREEQYASTYRVVSVLTVLHQDWLNGKEYKCKVSNKALPAPIEKTISKAKGQPREPQVYTLPPSRKEMTKNQVSLTCLVKGFYPSDIAVEWESNGQPENNYKTTPPYLDSDGSFFLYSKLTVDKSRWQQGNVFSCSVMHEALHNHYTQKSLSLSP
light 1: DIVMTQSPLSLPVTPGEPASISCRSSQSLVHSNRNTYLHWYQQKPGQAPRLLIYKVSNRFSGVPDRFSGSGSGTDFTLKISRVEAEDVGVYYCGQGTQVPYTFGQGTKLEIKRTVAAPSVFIFPPSDEQLKSGTASVVCLLNNFYPREAKVQWKVDNALQSGNSQESVTEQDSKDSTYSLSSTLTLSKADYEKHKVYACEVTHQGLSSPVTKSFNRGEC
heavy 2: QVQLVQSGAEVKKPGASVTVSCKASGYTFTDYEMHWIRQPPGEGLEWIGAIDGPTPDTAYSEKFKGRVTLTADKSTSTAYMELSSLTSEDTAVYYCTRFYSYTYWGQGTLVTVSSASTKGPSVFPLAPSSKSTSGGTAALGCLVKDYFPEPVTVSWNSGALTSGVHTFPAVLQSSGLYSLSSVVTVPSSSLGTQTYICNVNHKPSNTKVDKKVEPKSCDKTHTCPPCPAPELRGGPKVFLFPPKPKDTLMISRTPEVTCVVVDVSHEDPEVKFNWYVDGVEVHNAKTKPREEQYASTYRVVSVLTVLHQDWLNGKEYKCKVSNKALPAPIEKTISKAKGQPREPQVYTLPPSREEMTKNQVSLTCLVKGFYPSDIAVEWESNGQPENNYKTTPPYLDSDGSFFLYSKLTVDKSRWQQGNVFSCSVMHEALHNHYTQESLSLSP
light 2: B6 light 1 with S28P
Regarding B6, in assay [2], the “increase rate due to the protease treatment (luciferase, uPA-treated / untreated), antibody 0.1 nM” value worked out at 1.1 ratio and the “increase rate due to the protease treatment (luciferase, uPA-treated / untreated), antibody 1 nM” value came to 2.4 ratio.
